Here are results for 16 molecules from US20240301076A1 (CEPHALON, published 2024).

Substitutions are numbered along the chain they refer to. Names and notes keep the numbering of the source.

T1: human CXCR2 (human, UniProt P25025 1-360)
T1 sequence: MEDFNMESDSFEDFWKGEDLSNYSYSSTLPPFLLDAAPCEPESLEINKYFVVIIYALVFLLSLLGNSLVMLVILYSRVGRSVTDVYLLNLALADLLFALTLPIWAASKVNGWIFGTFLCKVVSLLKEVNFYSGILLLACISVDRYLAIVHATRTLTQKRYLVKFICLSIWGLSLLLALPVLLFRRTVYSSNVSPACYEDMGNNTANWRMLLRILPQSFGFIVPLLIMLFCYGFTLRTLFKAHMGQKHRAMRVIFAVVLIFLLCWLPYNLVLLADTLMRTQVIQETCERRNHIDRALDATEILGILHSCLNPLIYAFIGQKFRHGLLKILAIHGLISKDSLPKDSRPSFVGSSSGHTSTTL

T2: human CXCR1 (human, UniProt P25024 1-350)
T2 sequence: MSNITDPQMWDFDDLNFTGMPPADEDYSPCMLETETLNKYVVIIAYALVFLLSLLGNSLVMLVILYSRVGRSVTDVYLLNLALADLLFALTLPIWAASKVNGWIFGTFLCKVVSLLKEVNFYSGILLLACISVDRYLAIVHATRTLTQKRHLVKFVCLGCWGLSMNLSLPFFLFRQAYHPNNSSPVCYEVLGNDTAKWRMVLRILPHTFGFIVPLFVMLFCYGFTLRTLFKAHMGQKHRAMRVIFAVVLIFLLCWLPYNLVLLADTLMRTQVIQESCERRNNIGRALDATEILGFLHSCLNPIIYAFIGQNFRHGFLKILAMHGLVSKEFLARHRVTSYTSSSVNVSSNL

B1: BKO-4A8 variant VL N94S (antibody, human IgG4 S228P, lambda, V domains shown)
VH: EVQLLESGGGLVQPGGSLRLSCAASGFTFSSSTMSWVRQAPGKGLEWVSAISGRGRNTYYADSVKGRFTISRDNSRNTLYLQMNSLRAEDTAVYYCAIQMGYWGQGILVTVSS
VL: QSALTQPPSASGSPGQSVTISCIGTSSDVGGYNYVSWYQQHPDKAPKLMIYEVNKRPSGVPDRFSGSKSGNTASLTVSGLQAEDEADYYCSSYAGSNNFGVFGGGTKLTVLG
notes: IgG4 S228P, lambda; parental heavy chain; also called 4A8 VL N94S
B2: BKO-4A8 variant VL N95aQ (antibody, human IgG4 S228P, lambda, V domains shown)
VH: B1 VH
VL: B1 VL with S96N, N98Q
notes: IgG4 S228P, lambda; parental heavy chain; also called 4A8 VL N95aQ
B3: BKO-4A8 variant VL N94Y (antibody, human IgG4 S228P, lambda, V domains shown)
VH: B1 VH
VL: B1 VL with S96Y
notes: IgG4 S228P, lambda; parental heavy chain; also called 4A8 VL N94Y
B4: BKO-4F10 (antibody, human IgG4 S228P, lambda)
heavy: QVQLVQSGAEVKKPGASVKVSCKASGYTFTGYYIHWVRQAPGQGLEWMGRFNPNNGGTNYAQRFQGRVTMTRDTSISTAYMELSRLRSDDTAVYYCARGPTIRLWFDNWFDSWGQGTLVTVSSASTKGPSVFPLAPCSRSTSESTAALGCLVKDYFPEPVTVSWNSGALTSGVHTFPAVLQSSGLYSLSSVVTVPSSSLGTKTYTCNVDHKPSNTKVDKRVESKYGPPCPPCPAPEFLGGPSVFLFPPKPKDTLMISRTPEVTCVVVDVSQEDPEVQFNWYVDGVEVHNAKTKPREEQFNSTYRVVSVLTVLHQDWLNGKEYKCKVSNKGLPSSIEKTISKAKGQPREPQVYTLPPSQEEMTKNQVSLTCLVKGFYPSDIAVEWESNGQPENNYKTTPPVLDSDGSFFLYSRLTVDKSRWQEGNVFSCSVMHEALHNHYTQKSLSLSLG
light: QSALTQPASVSGSPGQSITISCTGTSSDVGGYNYVSWYQQHPGKAPKLMIYDVSNRPSGISNRFSGSKSGNTASLTISGLQAEDEADYYCSSYTSSSTWVFGGGTKLTVLGQPKAAPSVTLFPPSSEELQANKATLVCLISDFYPGAVTVAWKADSSPVKAGVETTTPSKQSNNKYAASSYLSLTPEQWKSHRSYSCQVTHEGSTVEKTVAPTECS
notes: recombinant human IgG4 S228P, lambda
B5: BKO-5G6_c (antibody, human IgG4 S228P, lambda)
heavy: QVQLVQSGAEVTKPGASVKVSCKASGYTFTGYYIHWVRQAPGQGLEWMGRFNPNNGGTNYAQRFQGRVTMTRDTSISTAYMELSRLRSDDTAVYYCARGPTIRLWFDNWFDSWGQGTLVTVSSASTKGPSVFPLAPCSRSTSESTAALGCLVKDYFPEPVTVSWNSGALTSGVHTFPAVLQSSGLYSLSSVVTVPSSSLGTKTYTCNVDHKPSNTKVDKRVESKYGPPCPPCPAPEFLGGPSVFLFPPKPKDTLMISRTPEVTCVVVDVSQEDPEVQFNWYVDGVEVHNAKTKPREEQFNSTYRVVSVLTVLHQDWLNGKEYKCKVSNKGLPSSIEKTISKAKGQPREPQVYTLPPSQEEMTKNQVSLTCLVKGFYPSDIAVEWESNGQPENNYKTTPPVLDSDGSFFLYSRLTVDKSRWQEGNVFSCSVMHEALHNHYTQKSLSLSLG
light: B4 light with K106T
notes: as for B4
B6: BKO-3F4 (antibody, human IgG4 S228P, lambda, V domains shown)
VH: B1 VH with F27L, S32Y, T33A, R54S, R56G, N57K, T58I, R76K, M100V, I107T
VL: B1 VL with I20M, I23T, S36T, D43G, N54S, D62A, S96P
notes: as for B4
B7: BKO-1H3 (antibody, human IgG4 S228P, lambda, V domains shown)
VH: B1 VH with F29L, S31R, T33S, M34T, A40T, R54S, R56G, N57R, R76K, M100L
VL: QSALTQPASVSGSPGQSITISCTGTSSDVGGYNYVSWYQQHPGKAPKLMIYDVSNRPSGVSNRFSGSKSGNTASLTISGLQAEDEADYYCSSYTSSSTWVFGGGTKLTVLG
notes: as for B4
B8: BKO-5G11 (antibody, human IgG4 S228P, lambda, V domains shown)
VH: EVQLLESGGGLVQPGGSLRLSCAVSGFTFSNYAMTWVRQAPGKGLEWVSAISGRGSRTYYADSVKGRFTISRDTSKNTLYLQMNSLRAEDTAVYYCAKMDYWGQGTLVTVSS
VL: B1 VL with I23T, D43G, Y51F, N54S
notes: as for B4
B9: BKO-2D8 (antibody, human IgG4 S228P, lambda, V domains shown)
VH: B1 VH with F27Y, S30T, S49T, R56G, N57R, R76K, M100L, Y102N
VL: B1 VL with I23T, V29I, D43G, M49V, K55M, D62A, S96N, N97D, T109S
notes: as for B4
B10: BKO-1D1 (antibody, human IgG4 S228P, lambda, V domains shown)
VH: EVQLLESGGGLVQPGGSLRLSCAASKLTFKNSAMSWVRQAPGKGLEWVSAITGSGGRTYYADSVKGRFTISRDNSKNTLYLQMNSLRAEDTAIYYCAIQMGYWGQGILVTVSS
VL: B1 VL with I23T, D43G, D62A
notes: as for B4
B11: BKO-8H8_b (antibody, human IgG4 S228P, lambda, V domains shown)
VH: EVQLLESGGGLVQPGGSLRLSCAASGLTVSSYAMSWVRQAPGKGLEWVSAISGSGGKIYYADSVKGRFTISRDNSKNTLYLQMNSLSAEDTAVYYCAIQVGYWGQGTLVTVSS
VL: B1 VL with I20M, I23T, S36T, D43G, M49V, N54S, D62V, S96P, V101I
notes: as for B4
B12: BKO-1B10 (antibody, human IgG4 S228P, lambda, V domains shown)
VH: QLQLQESGPGLVKPSETLSLTCTVSGGSIRTSSYYWGWIRQPPGKGLEYIGSIYYSGTTYYNPSLKSRVTMSVDTSKNQFSLKLSSVTAADTAVYYCARHGRVREVPPFDYWGQGTLVTVSS
VL: SSELTQDPAVSVALGQTVRITCQGDSLRYYYASWYQQKPGQAPVLVIYDENSRPSGIPDRFSGSSSGNTASLRITGTQAEDEADYYCNSRDTSGNHWAFGGGTKLTVLG
notes: as for B4
B13: BKO-1A1 (antibody, human IgG4 S228P, lambda, V domains shown)
VH: B12 VH with L84M, T92S
VL: B12 VL with R73S
notes: as for B4
B14: BKO-3D6 (antibody, human IgG4 S228P, lambda, V domains shown)
VH: EVQLVESGGDLVQPGRSLRLSCAASGFTFDDYAMHWVRQAPGKGLKWVSGITWNSGNKRYADSVKGRFTISRDNAKNSLYLQMNSLRAEDTALYYCAKDMKGSGTYFPAFDYWGQGTLVTVSS
VL: not shown
notes: as for B4
B15: BKO-3A9_b (antibody, human IgG4 S228P, lambda, V domains shown)
VH: QVQVQQSGPGLVKPSQTLSLTCAISGDSVSSNSAAWNWIRQSPSRGLEWLGRTYYRSKWYNDYAVSLKRRITIRPDTSRNHFSLHLSSVTPEDTAVYYCVRAYCGGGSCLDYWGQGTLVTVSS
VL: QSALTQPASASGSPGQSITISCTGTSSDVGNYNRVSWYQQHPGKVPKLMIYEGSKRPSGISNRFSGSKSGNTASLTISGLQPEDEADYFCCSYAGSNTLVFGGGTKLTVLG
notes: as for B4
B16: BKO-5E8 (antibody, human IgG4 S228P, lambda, V domains shown)
VH: EVQLLESGGGLVQPGGSLRLSCAASGFTFSSYAMSWVRQAPGRGLEWVSAIRGSGAGTYYADSMKGRFTISRDNSKDTLYLLMNSLRAEDTAVYYCSKLEAVSGTGKYFQHWGQGTLVTVSS
VL: SYELTQPPSVSVSPGQTANITCSGDTLGDKFACWYQQKPGQSPVLVIYQDTKRPSGIPERFSGSKSGITATLTISGTQAMDEADFYCQAWNSRGVVFGGGTRLTVLG
notes: as for B4

In the first experiment the target is T1, human CXCR2. As to the kind of experiment: cell-based or functional assay.
B1: the “IC50, CXCL1, Tango assay” value amounted to 0.149 nM and the “IC50, CXCL8, Tango assay” value is 0.169 nM.

On to B2, for which the “IC50, CXCL1, Tango assay” value turned out to be 0.213 nM and the “IC50, CXCL8, Tango assay” value worked out at 0.084 nM.

Consider B3, for which the “IC50, CXCL1, Tango assay” value was found to be 0.164 nM and the “IC50, CXCL8, Tango assay” value turned out to be 0.105 nM.

A further experiment deals with T1, human CXCR2. The experiment is described as follows: flow cytometry, transfected Expi293F cells. As for the experimental part:
(§1) Harvested cells were resuspended in FACS buffer (1×PBS+0.5% (w/v) bovine serum albumin (BSA)+2 mM EDTA pH 7.2). Approximately 2×10⁵ cells were added per well in a 96-well round-bottomed plate. Cells were pelleted by centrifugation at 400 g for 5 mins at 4° C. and supernatants discarded. 25 μL of each test antibody or control antibody was added to the cells and incubated for 30 minutes at 4° C. Cells were washed twice in 100 μL FACS buffer followed by centrifugation at 400 g for 5 mins at 4° C.
(§2) For detection, 50 μL of secondary antibody (Table 2) was added to relevant samples. Commercially available antibodies that bound to transfected CXCR family members were used as positive controls to ensure that the cells were expressing the receptors. Cells were washed twice in 200 μL of FACS buffer followed by centrifugation at 400 g for 5 mins at 4° C. Before sample acquisition, cells were resuspended in 100 μL of FACS buffer. Samples were acquired using the high throughput sampler on a FACSCanto™ II cytometer (Beckton-Dickinson).
(§3) These antibody variable regions were then generated by gene synthesis and subcloned into mammalian expression vectors as described in General Methods. Antibodies were produced by co-expression of heavy and light chain plasmids in Expi293F™ cells and purified by protein A column chromatography as described in General Methods. Where several heavy and/or light chains were identified from the same hybridoma cells, each heavy chain was paired with each light chain and the resulting antibodies given suffix a, b, c, etc. Purified antibodies were desalted into Sorensen's PBS pH 5.8 and tested by flow cytometry for binding to Expi293F™ cells transfected with human CXCR2 or human CXCR1 and mock transfected Expi293F™ cells.
As to B4, the binding result is recorded as “binds”.

B5: the binding result was “binds”.

Turning to B6, the binding result is “binds”.

For B7, the binding result is reported as “binds”.

B8: the binding result is given as “binds”.

Turning to B9, the binding result is reported as “binds”.

On to B10, for which the binding result was “binds”.

With B11, the binding result is on record as “binds”.

Turning to B12, the binding result is “binds”.

Turning to B13, the binding result was “binds”.

As for B14, the binding result is “binds”.

In the case of B15, the binding result was “binds”.

On to B16, for which the binding result is recorded as “binds”.

A further experiment deals with T2, human CXCR1. As to the kind of experiment: flow cytometry, transfected Expi293F cells. As for the experimental part: as §1, §2, §3
For B4, the binding result was “no binding”.

For the molecule B5, the binding result is “no binding”.

Take B6: the binding result was “no binding”.

B7: the binding result is reported as “no binding”.

Turning to B8, the binding result is “no binding”.

Regarding B9, the binding result is given as “no binding”.

As to B10, the binding result is “no binding”.

With B11, the binding result was “no binding”.

With B12, the binding result is listed as “no binding”.

With B13, the binding result is reported as “no binding”.

Turning to B14, the binding result was “no binding”.

For B15, the binding result is “no binding”.

In the case of B16, the binding result is reported as “no binding”.

The next experiment deals with T1, human CXCR2. As to the kind of experiment: flow cytometry, CXCR2-transfected Expi293F cells. On the procedure: as §1, §2
Each variant heavy chain was co-expressed with the parental light chain and vice versa.
Take B1: the “Fold change in binding relative to BKO-4A8” value is 1 fold.

As to B2, the “Fold change in binding relative to BKO-4A8” value stood at 1 fold.

With B3, the “Fold change in binding relative to BKO-4A8” value was 0.5 fold.
